Measurements reported in patent publication US20060275211A1.
One block for each binder: values may come before it.

Molecular target: Tag5-161P2F10B, purified recombinant extracellular domain (ECD) of 161P2F10B (amino acids 46-875) (human) (UniProt O14638)
Assay: SPR, MAb captured on CM5 chip, recombinant 161P2F10B 1-100 nM injected

- Kd: 26 nM
- koff: 0.00083 s⁻¹
- kon: 32000 M⁻¹ s⁻¹
B1: H16-1.29.1.1 (antibody, part only; not given: light chain, V domains shown, part only)
VH: CRLVESGAEVKKPGASVKVSCKASGYTFTGYYMHWVRQAPGQGLEWMGWINPNSGGTNYAQKFQGRVTMTRDTSISTAYMELSRLRSDDTAVYYCARDQVDIVATRYYYYYYGMDVWGQGTTVTVSSASTKGPSVFPLAPSSKST

- Kd: 9.8 nM
- koff: 0.00036 s⁻¹
- kon: 37000 M⁻¹ s⁻¹
B2: H16-1.92.1.1 (antibody, part only; not given: light chain, V domains shown, part only)
VH: EVLLVESGPGLVKPSETLSLTCTVSGGSISSSSYFWGWIRQPPGKGLEWIGSIYYSGNTYYNPSLKSRVTISVDTSKNRFSLKLSSVTAADTAVYCCASATTVTTAFDIWGQGTMVTVSSASTKGPSVFPLAPSS
